Blank lines part the entries; values can stand above or below the binder they belong to.
What was measured:
[1] = biological target: T1, recombinant 302–359 fragment of human mesothelin (hMSLN) (human, UniProt Q13421 302-359, biotin on the AviTag); test: SPR
T1 chain: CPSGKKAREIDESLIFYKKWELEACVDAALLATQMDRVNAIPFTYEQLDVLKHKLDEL

[2] = biological target: T2, recombinant 302–359 fragment of human mesothelin (hMSLN) (Homo sapiens, UniProt Q13421, biotin on the AviTag); test: SPR; Biacore T200; hMSLN 302–359 amine-coupled at about 700 RU on CM5; analytes 12.5 to 200 nM in HBS-EP, single cycle kinetics, 30 μL/min; Langmuir model; conditions: both partners purified
T2 construct: Amine-coupled to a CM5 chip in SPR, captured on NeutrAvidin in ELISA; source: E. coli Origami B with pBirA, purified (Ni-NTA, Superdex 75); not shown: AviTag, C-terminal, kept

[3] = biological target: T1, recombinant 302–359 fragment of human …; test: SPR
[4] = biological target: T1, recombinant 302–359 fragment of human …; test: SPR; bivalent model, kd2
[5] = biological target: human mesothelin on the surface of Meso34-MSLN cells (human) (UniProt Q13421); test: flow cytometry on cells; Meso34 and Meso34-MSLN cells stained with a concentration range of N13 monomer (streptavidin-PE), N13 dimer (anti-6X His Tag-PE) or MORAb-009 (anti-human IgG Fc), 30 min at 4°C; EC50 by one binding site regression
human mesothelin on the surface of Meso34-MSLN cells (human), sequence (Q13421 other isoform, or with tags, fused parts or gaps): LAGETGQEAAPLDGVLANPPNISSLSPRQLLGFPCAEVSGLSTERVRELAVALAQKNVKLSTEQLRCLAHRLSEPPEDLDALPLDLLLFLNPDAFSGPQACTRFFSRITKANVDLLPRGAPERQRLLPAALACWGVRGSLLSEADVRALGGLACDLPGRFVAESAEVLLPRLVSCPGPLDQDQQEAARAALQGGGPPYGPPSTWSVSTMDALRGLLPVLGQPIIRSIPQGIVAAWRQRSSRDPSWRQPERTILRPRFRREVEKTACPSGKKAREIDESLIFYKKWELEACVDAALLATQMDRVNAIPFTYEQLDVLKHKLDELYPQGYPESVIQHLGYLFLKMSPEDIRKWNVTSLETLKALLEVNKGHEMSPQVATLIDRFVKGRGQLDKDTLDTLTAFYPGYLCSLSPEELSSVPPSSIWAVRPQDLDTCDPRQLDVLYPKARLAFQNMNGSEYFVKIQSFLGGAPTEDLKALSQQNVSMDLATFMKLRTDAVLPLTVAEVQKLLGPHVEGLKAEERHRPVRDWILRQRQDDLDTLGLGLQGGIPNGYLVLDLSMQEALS

[6] = biological target: recombinant 302–359 fragment of human mesothelin (hMSLN) (human) (UniProt Q13421); test: SPR; Biacore T200; hMSLN 302–359 amine-coupled at about 700 RU on CM5; analytes 12.5 to 200 nM in HBS-EP, single cycle kinetics, 30 μL/min; bivalent model; apparent
[7] = biological target: T1, recombinant 302–359 fragment of human …; test: SPR; bivalent model, kd1
[8] = biological target: T1, recombinant 302–359 fragment of human …; test: SPR; bivalent model, kd1
[9] = biological target: human mesothelin on the surface of Meso34-MSLN cells (human) (UniProt Q13421); test: flow cytometry on cells; Meso34-MSLN and NK92CD16h cells incubated with increasing concentrations of BiKEs, 30 min at 4°C; streptavidin-PE; one binding site regression
[10] = biological target: human mesothelin on the surface of Meso34-MSLN cells (human) (UniProt Q13421)
[11] = biological target: T1, recombinant 302–359 fragment of human …; test: SPR; bivalent model, kd2
[12] = biological target: T1, recombinant 302–359 fragment of human …; test: SPR
[13] = biological target: recombinant 302–359 fragment of human mesothelin (hMSLN) (human) (UniProt Q13421); test: SPR; Biacore T200; hMSLN 302–359 amine-coupled at about 700 RU on CM5; analytes 12.5 to 200 nM in HBS-EP, single cycle kinetics, 30 μL/min; Langmuir model

koff [1]: 0.288 s⁻¹
B1: N23 Affitin (monomer) (designed binder)
chain: MRGSHHHHHHGSATKVKFKLFGEEKEVDISKIKRVERRAIQAASYIAFAYDDNGKIGHGWVSEKDAPKELLEKLKLN
modifications: biotin on the AviTag

Kd [2]: 15.6 nM | koff [3]: 0.804 s⁻¹
B2: VHH A1 (anti-hMSLN VHH) (VHH)
VHH: DVQLQESGGGLVHPGGSLRLSCAASGIDLSLYRMRWYRQAPGKERDLVALITDDGTSYYEDSVKGRFTITRDNPSNKVFLQMNSLKPEDTAVYYCNAETPLSPVNYWGQGTQVTVSS

koff [1]: 0.214 s⁻¹
B3: N7 Affitin (monomer) (designed binder)
chain: MRGSHHHHHHGSATKVKFKYMGEEKEVDISKIKVVSRSVGPLGSFILFQYDDNGKMGRGFVSEKDAPKELLEKLKLN
modifications: biotin on the AviTag

koff [4]: 0.000767 s⁻¹ | EC50 [5]: 2.22 nM | fold increase in affinity for cellular hMSLN against the N13 monomer [5]: 1000 fold | Kd [6]: 0.57 nM | fold reduction of the dissociation rate constant (kd) against the N13 monomer [6]: 84 fold | koff [7]: 0.0573 s⁻¹
B4: N13 Affitin homodimer (two N13 Affitins linked by a 20-amino-acid HMA linker) (designed binder)
chain: MRGSHHHHHHGSATKVKFKVFGEEKEVDISKIKHVDRMNWRGLLYIRFSYDDNGKLGHGWVSEKDAPKELLEKLKPSGQAGAAASESLFVSNHAYGSGATKVKFKVFGEEKEVDISKIKHVDRMNWRGLLYIRFSYDDNGKLGHGWVSEKDAPKELLEKLKLGSGLNDIFEAQKIEWHE

koff [1]: 0.0647 s⁻¹
B5: N13 Affitin (monomer) (designed binder)
chain: MRGSHHHHHHGSATKVKFKVFGEEKEVDISKIKHVDRMNWRGLLYIRFSYDDNGKLGHGWVSEKDAPKELLEKLKLN
modifications: biotin on the AviTag

koff [8]: 0.136 s⁻¹ | EC50 [9]: 7.45 nM | Kd [6]: 0.831 nM | koff [11]: 0.000762 s⁻¹
B6: C21(N13)2 bispecific NK cell engager (anti-CD16 VHH C21 fused to a homodimer of N13 Affitin) (designed binder)
chain: MEVQLVESGGELVQAGGSLRLSCAASGLTFSSYNMGWFRRAPGKEREFVASITWSGRDTFYADSVKGRFTISRDNAKNTVYLQMSSLKPEDTAVYYCAANPWPVAAPRSGTYWGQGTQVTVSSPSGQAGAAASESLFVSNHAYGSATKVKFKVFGEEKEVDISKIKHVDRMNWRGLLYIRFSYDDNGKLGHGWVSEKDAPKELLEKLKPSGQAGAAASESLFVSNHAYGSGATKVKFKVFGEEKEVDISKIKHVDRMNWRGLLYIRFSYDDNGKLGHGWVSEKDAPKELLEKLKLNRGSHHHHHHGSGLNDIFEAQKIEWHE
modifications: biotin on the AviTag
ED50 of NK92CD16h-mediated 51Cr cytotoxicity on Meso34-MSLN cells, effector/target ratio 10:1 [10]: 0.325 nM | ED50 of NK92CD16h-mediated 51Cr cytotoxicity on Meso34-MSLN cells, effector/target ratio 20:1 [10]: 0.277 nM | maximal NK92CD16h-mediated 51Cr cytotoxicity on Meso34-MSLN cells, effector/target ratio 10:1 [10]: 22.6% | maximal NK92CD16h-mediated 51Cr cytotoxicity on Meso34-MSLN cells, effector/target ratio 20:1 [10]: 38.9%

koff [12]: 0.0385 s⁻¹ | affinity for Meso34-hMSLN cells [9]: > 100 nM | Kd [13]: 67.1 nM
B7: C21(N13)1 bispecific NK cell engager (anti-CD16 VHH C21 fused to one N13 Affitin) (designed binder)
chain: MEVQLVESGGELVQAGGSLRLSCAASGLTFSSYNMGWFRRAPGKEREFVASITWSGRDTFYADSVKGRFTISRDNAKNTVYLQMSSLKPEDTAVYYCAANPWPVAAPRSGTYWGQGTQVTVSSPSGQAGAAASESLFVSNHAYGSATKVKFKVFGEEKEVDISKIKHVDRMNWRGLLYIRFSYDDNGKLGHGWVSEKDAPKELLEKLKKLNRGSHHHHHHGSGLNDIFEAQKIEWHE
modifications: biotin on the AviTag
ED50 of NK92CD16h-mediated 51Cr cytotoxicity on Meso34-MSLN cells, effector/target ratio 10:1 [10]: 5.62 nM | ED50 of NK92CD16h-mediated 51Cr cytotoxicity on Meso34-MSLN cells, effector/target ratio 20:1 [10]: 3.11 nM | maximal NK92CD16h-mediated 51Cr cytotoxicity on Meso34-MSLN cells, effector/target ratio 10:1 [10]: 19.2% | maximal NK92CD16h-mediated 51Cr cytotoxicity on Meso34-MSLN cells, effector/target ratio 20:1 [10]: 26.1%

koff [1]: 0.073 s⁻¹
B8: N18 Affitin (monomer) (designed binder)
chain: MRGSHHHHHHGSATKVKFKLFGEEKEVDISKIKKVERRTFHMDKTIVFMYDDNGKSGYGWVSEKDAPKELLEKLKLN
modifications: biotin on the AviTag

Reference: article PMC12752793, “Development of potent Affitin-based bispecific NK cell engagers for the therapy of MSLN-expressing cancers” (Molecular Therapy Oncology, 2025)
